Test results published in US20080064629A1, “Amphiregulin as a Protective Agent in Acute Hepatic Injury” (priority 2004, published 2008).

Key:
Assay type in all cases: cell-based
[1] = system: mouse hepatocytes in primary culture; assay: Apoptosis induced by actinomycin D and Jo2 antibody in mouse hepatocytes in primary culture
Source text: In order to determine whether the in vivo antiapoptotic effects of AR could be mediated by direct action of AR on liver parenchymal cells, the inventors used mouse hepatocytes in primary culture. It has been reported that hepatocytes exposed to Jo-2 antibodies undergo apoptosis effectively in presence of actinomycin D [(5), (6), (33) Ni, R., Tomita, Y., Matsuda, K., Ichiara, A., Ishimura, K., Ogasawara, J., Nagata, S. 1994. Fas-mediated apoptosis in primary cultured mouse hepatocytes. Exp. Cell Res. 215: 332-337]. Hepatocytes were pretreated with different concentrations of AR during […] before addition of actinomycin D and Jo2 antibody. Measurements of apoptosis and related molecular events, were made 18 h later. […] Likewise, they found antiapoptotic protein Bcl-xL to be induced by treatment with AR in mouse hepatocytes treated with Jo2 (FIG. 4B). In order to identify the AR antiapoptotic signaling mechanisms, PI-3K/Akt and ERK1/2 pathways were studied, as they are general mediators of cell survival [(4), (6)]. […] A key signaling molecule implicated in protection against liver damage induced by Fas is STAT3 [(34) Shen, Y., Devgan, G., Darnell, J. E., Bromberg, J. F. 2001. Constitutively activated Stat3 protects fibroblasts from serum withdrawal and UV-induced apoptosis and antagonizes the proapoptotic effects of activated Statl. Proc. Natl. Acad. Sci. USA. 98: 1543-1548. (35) Haga, S., Terui, K., Zhang, H. Q., Enosawa, S., Ogawa, W., Inoue, H., Okuyama, T., Takeda, K., Akira, S., Ogino, T., et al. 2003. Stat3 protects against Fas-induced liver injury by redox-dependent and -independent mechanisms. J. Clin. Invest. 112: 989-998].
(§1) Hepatocytes were isolated from male Wistar rats (150 g) and C57/BL6 mice (20 g) by perfusion with collagenase (Gibco-BRL, Paisley, UK) as described elsewhere [(18), (20)]. Cells (5×10^5 cells per well) were plated onto 6-well plates coated with collagen (type I collagen, Collaborative Biomedical, Bedford, Mass., USA). Cultures were maintained in MEM medium supplemented with 10% fetal calf serum (FCS), non-essential amino acids, glutamine 2 mM and antibiotics (all supplied by Gibco-BRL). After 2 h of incubation, the medium was removed and cells were again cultured in the same medium with 5% FCS. Where applicable, hepatocytes were treated with IL-1β or TNFα from Roche (Mannheim, Germany), HGF or forskolin from Calbiochem (San Diego, Calif., USA), IL6 from RD Systems (Wiesbaden-Nordenstadt, Germany), or PGE2 from Alexis QBiogene (Carlsbad, Calif., USA).
Apoptosis was induced in cultured mouse hepatocytes by treatment with 0.5 μg/ml of Jo2 antibody and 0.05 μg/ml of actinomycin D as described elsewhere (5). Where applicable, the hepatocytes were treated with AR 6 h before the addition of Jo2 antibody and actinomycin D. Apoptosis was estimated by determining soluble histone-DNA complexes using the Cell Death Detection Assay (Roche). ELISA tests for determining cell death were carried out following the manufacturer's instructions. The specific enrichment of mono- and oligonucleosomes released in the cytoplasm (enrichment factor, EF) was calculated as the ratio between the absorbance values of the samples corresponding to treated cells and control cells. […]
Caspase-3 activity in mouse hepatocytes and liver tissue lysates was assessed using the Caspase-3/CPP32 colorimetric assay kit (BioVision, Palo Alto, Calif., USA). […]

cultured rat hepatocytes = assay: EGF-R and proliferation signaling pathways (Western blot of phosphorylation) in cultured rat hepatocytes
Experimental: as §1
(§2) Homogenates from liver samples and isolated hepatocytes were subjected to Western blot analysis as described elsewhere [(19, (20)]. Antibodies used were: affinity purified and biotinylated polyclonal antibody specifically targeted to murine AR (BAF989)(RD Systems); specific antibodies for the p17 subunit of active caspase-3 (9664S), phosphorylated Akt (Ser473) (9271S) and phosphorylated STAT3 (Tyr^705) (9131S) (Cell Signaling, Beverly, Mass., USA); ERK1/2 (06-182), phosphorylated EGF-R (Tyr^1173)(05-483) and STAT3 (06-596)(Upstate Biotechnology, Charlottesville, Va., USA). All other antibodies were from Santa Cruz Biotechnology (Santa Cruz, Calif., USA): BclxL (sc8392), Bcl2 (sc7382), EGF-R (sc-03), phosphorylated ERK1/2 (Tyr^204) (sc7383), Akt (sc5298), JNK (sc571), and phosphorylated JNK (Thr^183/Tyr^185) (sc6254).

[2] = system: cultured mouse hepatocytes; assay: Antiapoptotic signaling pathways (Western blot of phosphorylation) in cultured mouse hepatocytes; settings: AR 20 nM, different times
Experimental: as §1, §2

rat hepatocytes = assay: DNA synthesis ([3H]thymidine incorporation) in cultured rat hepatocytes; settings: increasing concentrations of AR, 30 h of treatment
Experimental: For DNA synthesis, rat hepatocytes were plated to a density of 3×10^4 cells/well in 96-well plates coated with collagen in MEM medium supplemented with 10% FCS. Five hours after plating, the medium was changed and cells were maintained in absence of serum for another 20 hours. DNA synthesis was assayed after 30 h of treatment with AR. A pulse of [^3H]thymidine was administered (1 μCi/well)(Amersham Biosciences, Piscataway, N.J., USA) 22 h after the addition of AR. Cells were harvested, and the incorporation of thymidine was determined with a scintillation counter. Evaluations were made of the effect of AR on DNA synthesis in the presence of MEK1 inhibitor, PD98059, PI-3K inhibitor, LY294002, p38 MAPK inhibitor, SB202190, JNK inhibitor, SP600125, and of the EGF-R tyrosine kinase activity inhibitor, PD153035—all supplied by Calbiochem.

[3] = rat hepatocytes, different times after addition of AR

B1: amphiregulin (protein)
chain: SVRVEQVVKPPQNKTESENTSDKPKRKKKGGKNGKNRRNRKKKNPCNAEFQNFCIHGECKYIEHLEAVTCKCQQEYFGERCGEKSMKTHSMIDSSLSK
notes: polypeptide growth factor belonging to the EGF family, ligand of EGF receptor; human recombinant AR (Sigma) used
[1]; AR 20 nM, mouse hepatocytes treated with Jo2
  antiapoptotic protein Bcl-xL (Western blot): induced
[1]; AR 20 nM, mouse hepatocytes treated with actinomycin D and Jo2
  proteolysis and activation of caspase-3 induced by Jo2 antibody: significantly inhibited
[1]; increasing concentrations of AR before actinomycin D and Jo2, measured 18 h later
  apoptosis (enrichment factor of mono- and oligonucleosomes): protected from apoptosis by AR in a dose-dependent manner
Cultured rat hepatocytes; isolated rat hepatocytes treated with AR
  phosphorylation of EGF-R on tyrosine residues: rapid and transient phosphorylation
Cultured rat hepatocytes; [3]
  JNK phosphorylation: observed JNK phosphorylation
  phosphorylation of Akt: rapidly induces phosphorylation
  phosphorylation of ERK1/2: rapidly induces phosphorylation
[2]
  phosphorylation of Akt: increased phosphorylation
  phosphorylation of ERK1/2: increased phosphorylation
  phosphorylation of STAT3: stimulate phosphorylation
Rat hepatocytes
  DNA synthesis, incorporation of [3H]thymidine to DNA: stimulating the incorporation of [^3H]thymidine to DNA in a dose-dependent manner
